Experimental data: CN116355088A

Tests used:
人IV型胶原蛋白α5链多肽 (human) = 人IV型胶原蛋白α5链多肽 (human) (UniProt P29400); test: indirect ELISA, plate coated with 0.5 μg/ml peptide, purified antibody in 3-fold dilutions from 1 μg/ml
生物素标记的抗原多肽 (human) = 生物素标记的抗原多肽 (human) (UniProt P29400); test: BLI (Fortebio Octet), biotinylated peptide on SA biosensor, antibody at 100 to 1.56 nM

B1: 18G6-2 (antibody, V domains shown)
VH: QVQLQQPGAELVKPGASVKVSCKASGYTFTNYWMHWVKQRPGQGLEWIGRIHPSDSAINYSPKFTGKATLTVDKSSSTAYMQLTSLTSEDSAVYYCAIGGYDSYWGQGTLVTVSA
VL: DIQMTQTTSSLSASLGDRVTISCRASQDISNYLNWYQQKPDGTVKLLIYYTSTLHSGVPSRFSGSGSGTDYSLTINSLAQEDIATYFCQQVNTLPWTFGGGTKLAIK
人IV型胶原蛋白α5链多肽 (human)
  EC50: 0.0221 µg/mL
生物素标记的抗原多肽 (human)
  Kd: 3.18 nM
